According to article PMC6085627, “Exploring the biological functional mechanism of the HMGB1/TLR4/MD-2 complex by surface plasmon resonance” (Molecular Medicine, 2018):

B1: disulfide HMGB1 (High Mobility Group Box 1) (natural protein, UniProt P63159 1-215, looked up)
chain: MGKGDPKKPRGKMSSYAFFVQTCREEHKKKHPDASVNFSEFSKKCSERWKTMSAKEKGKFEDMAKADKARYEREMKTYIPPKGETKKKFKDPNAPKRPPSAFFLFCSEYRPKIKGEHPGLSIGDVAKKLGEMWNNTAADDKQPYEKKAAKLKEKYEKDIAAYRAKGKPDAAKKGVVKAEKSKKKKEEEDDEEDEEDEEEEEEEEDEDEEEDDDDE
modifications: disulfide bond between C23 and C45
notes: High Mobility Group Box 1 (HMGB1), single 215-amino acid polypeptide; neither is stated here; also called disulfide HMGB1 isoform; intact HMGB1; source: E. coli, purified to homogeneity
B2: DTT reduced HMGB1 (natural protein, UniProt P63159 1-215, looked up)
chain: MGKGDPKKPRGKMSSYAFFVQTCREEHKKKHPDASVNFSEFSKKCSERWKTMSAKEKGKFEDMAKADKARYEREMKTYIPPKGETKKKFKDPNAPKRPPSAFFLFCSEYRPKIKGEHPGLSIGDVAKKLGEMWNNTAADDKQPYEKKAAKLKEKYEKDIAAYRAKGKPDAAKKGVVKAEKSKKKKEEEDDEEDEEDEEEEEEEEDEDEEEDDDDE
modifications: cysteines reduced with DTT (no C23-C45 disulfide)
notes: High Mobility Group Box 1 (HMGB1), 215 amino acids, reduced form; Prepared as in Yang et al. 2012 (cited); Same protein as m1 in another redox state; source: E. coli, purified to homogeneity, then reduced with DTT
B3: non-oxidizable HMGB1 3S mutant (natural protein, UniProt P63159 1-215, looked up)
chain: MGKGDPKKPRGKMSSYAFFVQTSREEHKKKHPDASVNFSEFSKKSSERWKTMSAKEKGKFEDMAKADKARYEREMKTYIPPKGETKKKFKDPNAPKRPPSAFFLFSSEYRPKIKGEHPGLSIGDVAKKLGEMWNNTAADDKQPYEKKAAKLKEKYEKDIAAYRAKGKPDAAKKGVVKAEKSKKKKEEEDDEEDEEDEEEEEEEEDEDEEEDDDDE
notes: HMGB1 in which all three cysteines (C23, C45, C106) are replaced by serines; Commercial protein; also called 3S mutant HMGB1; source: provided by HMGBiotech (Milan, Italy)

Columns and labels:
Human TLR4/MD-2 complex = molecular target: T1, Human TLR4/MD-2 complex (human, UniProt O00206 24-631; Q9Y6Y9 19-160); test: SPR; Biacore T200; TLR4/MD-2 amine-coupled on CM5 (~1200 RU); HMGB1 isoforms injected at 30 μL/min for 60 s, 25 °C, dissociation 1 min; HBS-EP pH 7.4 (10 mM hepes, 150 mM NaCl, 3 mM EDTA, 0.05% P20); 1:1 binding supposed; apparent KD; settings: both partners purified
T1 construct: Toll-like receptor 4 (TLR4), human, chain of the bought TLR4/MD-2 complex; Myeloid Differentiation factor 2 (MD-2), human, chain of the bought TLR4/MD-2 complex; No catalogue number printed; also called TLR4/MD-2 receptor; source: bought: R&D Systems

human TLR4 = molecular target: T2, human TLR4 (human, UniProt O00206 24-631); test: SPR; Biacore T200; rhTLR4 amine-coupled on CM5 (~800 RU); HMGB1 isoforms injected at 30 μL/min for 60 s, 25 °C, dissociation 1-2 min; HBS-EP pH 7.4; 1:1 binding supposed; apparent KD; settings: both partners purified
T2 construct: Toll-like receptor 4 (TLR4), recombinant human (rhTLR4); No catalogue number printed; also called rhTLR4; Toll-like receptor 4; source: bought: R&D Systems
T2 sequence (O00206 24-631): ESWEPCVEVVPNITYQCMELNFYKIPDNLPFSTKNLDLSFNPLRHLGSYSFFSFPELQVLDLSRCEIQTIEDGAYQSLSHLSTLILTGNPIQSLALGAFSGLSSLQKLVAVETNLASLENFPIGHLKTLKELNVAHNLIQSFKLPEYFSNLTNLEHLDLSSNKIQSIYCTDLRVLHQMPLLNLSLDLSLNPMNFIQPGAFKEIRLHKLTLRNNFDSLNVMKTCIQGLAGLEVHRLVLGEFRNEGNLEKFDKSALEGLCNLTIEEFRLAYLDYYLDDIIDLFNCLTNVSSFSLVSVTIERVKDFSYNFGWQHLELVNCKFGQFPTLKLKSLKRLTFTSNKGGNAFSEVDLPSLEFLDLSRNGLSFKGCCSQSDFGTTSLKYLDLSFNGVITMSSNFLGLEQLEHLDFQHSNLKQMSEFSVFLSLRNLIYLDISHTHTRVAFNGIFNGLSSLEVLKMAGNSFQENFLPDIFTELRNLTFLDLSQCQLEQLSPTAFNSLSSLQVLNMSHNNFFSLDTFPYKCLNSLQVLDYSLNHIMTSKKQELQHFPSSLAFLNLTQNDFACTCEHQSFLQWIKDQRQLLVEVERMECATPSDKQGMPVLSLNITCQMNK

T1 sequence (O00206 24-631, chain 1 of 2): as the sequence (O00206 24-631) above
T1 sequence (Q9Y6Y9 19-160, chain 2 of 2): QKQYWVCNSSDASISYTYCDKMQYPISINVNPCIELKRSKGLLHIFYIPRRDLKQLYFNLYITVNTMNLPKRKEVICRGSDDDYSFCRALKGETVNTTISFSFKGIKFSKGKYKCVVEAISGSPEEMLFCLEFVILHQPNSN

| Binder | Kd (Human TLR4/MD-2 complex) [µM] | fold faster association rate than the other isoforms (Human TLR4/MD-2 complex) [fold] | kon (Human TLR4/MD-2 complex) [M⁻¹ s⁻¹] | Kd (human TLR4) [µM] |
| --- | --- | --- | --- | --- |
| B1 | 0.42 ± 0.01 | 10 | 286000 |  |
| B2 | 3.93 ± 0.01 |  |  |  |
| B3 | 3.02 ± 0.02 |  |  | 4.2 ± 0.09 |
